Tests used:
O=NO = experiment: purified protein; conditions: pH 7.6, methyl viologen cation radical as electron donor, 1 μM enzyme
[1] = target: C-terminal domain-only (CTD, residues 64-224) variant of ScdA (S. aureus) (UniProt P72360); experiment: SEC; Superdex 75 Increase 10/300 GL, 20 mM Tris, 150 mM NaCl, pH 7.6; no reducing agent (WT also with MV radicals); oligomer peak at 9.2 mL, dimer peak at 10.9 mL

Q: Which Km (O=NO; predominantly dimeric) does the source give for “ScdA (Staphylococcus aureus subsp. aureus NCTC 8325; C191A/C30A/C31A)” here?
A: Its Km is 822 µM.

Q: What about the kcat (O=NO; predominantly dimeric) of the same substance?
A: Its kcat is 94.3 min^–1.

Q: How did the Km (O=NO; partly oligomeric) turn out when “ScdA (Staphylococcus aureus subsp. aureus NCTC 8325)” was run?
A: Its Km is 681 µM.

Q: What about the kcat (O=NO; partly oligomeric) of the same substance?
A: Its kcat is 32.3 min^–1.

Q: “C-terminal domain-only (CTD, residues 64-224) variant of ScdA (from UniProt P72360 64-224) (domain or fragment)” was tested. Which stoichiometry N [1] did it give?
A: The stoichiometry N was 2.

Reference: PMC12412097, “Structure and Nitrite Reductase Activity of the Di-iron Protein ScdA in Staphylococcus aureus” (Journal of the American Chemical Society, 2025)
